How the values were obtained:
[1] = substrate: CN(Cc1cnc2nc(N)nc(N)c2n1)c1ccc(C(=O)N[C@@H](CCC(=O)O)C(=O)O)cc1; test: cells, lysate or membranes named; conditions: other: ABCG2-M membranes; pH 7.0; 37.0 °C
[2] = substrate: C[C@H](CCC(=O)NCCS(=O)(=O)O)[C@H]1CC[C@H]2[C@@H]3[C@H](O)C[C@@H]4C[C@H](O)CC[C@]4(C)[C@H]3C[C@H](O)[C@]12C; test: cells, lysate or membranes named

B1: ABCG2 (Homo sapiens) (protein)
chain: MSSSNVEVFIPVSQGNTNGFPATASNDLKAFTEGAVLSFHNICYRVKLKSGFLPCRKPVEKEILSNINGIMKPGLNAILGPTGGGKSSLLDVLAARKDPSGLSGDVLINGAPRPANFKCNSGYVVQDDVVMGTLTVRENLQFSAALRLATTMTNHEKNERINRVIQELGLDKVADSKVGTQFIRGVSGGERKRTSIGMELITDPSILFLDEPTTGLDSSTANAVLLLLKRMSKQGRTIIFSIHQPRYSIFKLFDSLTLLASGRLMFHGPAQEALGYFESAGYHCEAYNNPADFFLDIINGDSTAVALNREEDFKATEIIEPSKQDKPLIEKLAEIYVNSSFYKETKAELHQLSGGEKKKKITVFKEISYTTSFCHQLRWVSKRSFKNLLGNPQASIAQIIVTVVLGLVIGAIYFGLKNDSTGIQNRAGVLFFLTTNQCFSSVSAVELFVVEKKLFIHEYISGYYRVSSYFLGKLLSDLLPMRMLPSIIFTCIVYFMLGLKPKADAFFVMMFTLMMVAYSASSMALAIAAGQSVVSVATLLMTICFVFMMIFSGLLVNLTTIASWLSWLQYFSIPRYGFTALQHNEFLGQNFCPGLNATGNNPCNYATCTGEEYLVKQGIDLSPWGLWKNHVALACMIVIFLTIAYLKLLFLKKYS
Km [1]: 3600 µM

B2: ratBsep (Rattus norvegicus) (protein)
chain: MSDSVILRSVKKFGEENHAFESDGSHNNDKKSRLQDKMKEGDIRVGFFELFRFSSSKDIWLMLMGGVCALLHGMAQPGILIIFGIMTDIFIKYDIERQELEIPGKACVNNTIVWINSSFHQNMTNGTVCGLVDIESEMIKFSGIYAGVGMTVLILGYFQIRLWVITGARQIRRMRKIYFRRIMRMEIGWFDCTSVGELNSRFADDIEKINDAIADQLAHFLQRMSTAMCGLLLGFYRGWKLTLVILAVSPLIGIGAAVIGLSIAKFTELELKAYAKAGSIADEVLSSIRTVAAFGGENKEVERYEKNLVFAQRWGIWKGMVMGFFTGYMWCLIFFCYALAFWYGSTLVLDEEEYTPGTLVQIFLCVILAAMNIGHASSCLEIFSTGCSAATNIFQTIDRQPVIDCMSGDGYKLDRIKGEIEFHNVTFHYPSRPDVKILDNLSMVIKPGETTALVGSSGAGKSTALQLIQRFYDPCEGMVTLDGHDIRSLNIRWLRDQIGIVEQEPVLFSTTIAENIRFGREDATMEDIVQAAKDANAYNFIMALPQQFDTLVGEGGGQMSGGQKQRVAIARALIRNPKILLLDMATSALDNESEARVQEALNKIQHGHTIISVAHRLSTVRAADVIIGFEHGVAVERGTHEELLERKGVYFMLVTLQSQGDNAHKETSIMGKDATEGGTLERTFSRGSYRDSLRASIRQRSKSQLSLLTHDPPLAVADHKSSYKDSKDNDVLVEEVEPAPVRRILKYNIPEWHYILVGSLSAAINGAVTPIYSLLFSQLLGTFSLLDKEQQRSEIHSMCLFFVILGCVSIFTQFLQGYTFAKSGELLTKRLRKFGFKAMLGQDIGWFDDLRNNPGVLTTRLATDASQVQGATGSQVGMMVNSFTNIIAALLIAFFFSWKLSLIITIFFPFLALSGAVQTKMLTGFASQDKQALEKAGQITSEALSNIRTVAGIGVEGRFIKAFEVELQTSYKTAVRKANIYGLCFAFSQGIAFLANSAAYRYGGYLIAYEGLGFSHVFRVVSSVALSATAVGRTFSYTPSYAKAKISAARFFQLLDRKPPINVYSEAGEKWDNFQGKIDFIDCKFTYPSRPDIQVLNGLSVSVNPGQTLAFVGSSGCGKSTSIQLLERFYDPDQGTVMIDGHDSKKVNIQFLRSNIGIVSQEPVLFDCSIMDNIKYGDNTKEISVERAIAAAKQAQLHDFVMSLPEKYETNVGIQGSQLSRGEKQRIAIARAIVRDPKILLLDEATSALDTESEKTVQTALDKAREGRTCIVIAHRLSTIQNSDIIAVVSQGVVIEKGTHEKLMAQKGAYYKLVITGAPIS
Km ([2]; other: ratBsep-Sf9 CTRL): 2.203 µM

B3: humanBSEP (Homo sapiens) (protein)
chain: MSDSVILRSIKKFGEENDGFESDKSYNNDKKSRLQDEKKGDGVRVGFFQLFRFSSSTDIWLMFVGSLCAFLHGIAQPGVLLIFGTMTDVFIDYDVELQELQIPGKACVNNTIVWTNSSLNQNMTNGTRCGLLNIESEMIKFASYYAGIAVAVLITGYIQICFWVIAAARQIQKMRKFYFRRIMRMEIGWFDCNSVGELNTRFSDDINKINDAIADQMALFIQRMTSTICGFLLGFFRGWKLTLVIISVSPLIGIGAATIGLSVSKFTDYELKAYAKAGVVADEVISSMRTVAAFGGEKREVERYEKNLVFAQRWGIRKGIVMGFFTGFVWCLIFLCYALAFWYGSTLVLDEGEYTPGTLVQIFLSVIVGALNLGNASPCLEAFATGRAAATSIFETIDRKPIIDCMSEDGYKLDRIKGEIEFHNVTFHYPSRPEVKILNDLNMVIKPGEMTALVGPSGAGKSTALQLIQRFYDPCEGMVTVDGHDIRSLNIQWLRDQIGIVEQEPVLFSTTIAENIRYGREDATMEDIVQAAKEANAYNFIMDLPQQFDTLVGEGGGQMSGGQKQRVAIARALIRNPKILLLDMATSALDNESEAMVQEVLSKIQHGHTIISVAHRLSTVRAADTIIGFEHGTAVERGTHEELLERKGVYFTLVTLQSQGNQALNEEDIKDATEDDMLARTFSRGSYQDSLRASIRQRSKSQLSYLVHEPPLAVVDHKSTYEEDRKDKDIPVQEEVEPAPVRRILKFSAPEWPYMLVGSVGAAVNGTVTPLYAFLFSQILGTFSIPDKEEQRSQINGVCLLFVAMGCVSLFTQFLQGYAFAKSGELLTKRLRKFGFRAMLGQDIAWFDDLRNSPGALTTRLATDASQVQGAAGSQIGMIVNSFTNVTVAMIIAFSFSWKLSLVILCFFPFLALSGATQTRMLTGFASRDKQALEMVGQITNEALSNIRTVAGIGKERRFIEALETELEKPFKTAIQKANIYGFCFAFAQCIMFIANSASYRYGGYLISNEGLHFSYVFRVISAVVLSATALGRAFSYTPSYAKAKISAARFFQLLDRQPPISVYNTAGEKWDNFQGKIDFVDCKFTYPSRPDSQVLNGLSVSISPGQTLAFVGSSGCGKSTSIQLLERFYDPDQGKVMIDGHDSKKVNVQFLRSNIGIVSQEPVLFACSIMDNIKYGDNTKEIPMERVIAAAKQAQLHDFVMSLPEKYETNVGSQGSQLSRGEKQRIAIARAIVRDPKILLLDEATSALDTESEKTVQVALDKAREGRTCIVIAHRLSTIQNADIIAVMAQGVVIEKGTHEELMAQKGAYYKLVTTGSPIS
Km ([2]; other: humanBSEP-Sf9 CTRL): 15.03 µM

B4: mouseBsep (Mus musculus) (protein)
chain: MSDSVILRSVKKFGEENHAFESDGFHNNDKKSRLQDKKKGEGARVGFFELFRFSSSKDNWLMFMGSVCALLHGMAQPGMIIVFGILTDIFVEYDIERQELSIPEKVCMNNTIVWINSSFNQNMTNGTSCGLVDINSEVIKFSGIYAGVGVAVLILGYFQIRLWVITGARQIRKMRKFYFRRIMRMEIGWFDCTSVGELNSRFSDDINKIDEAIADQMALFLQRLSTALSGLLLGFYRGWKLTLVILAVSPLIGIGAAVIGLSVAKFTELELKAYAKAGSIADEVLSSIRTVAAFGGENKEVERYEKNLMFAQRWGIWKGMVMGFFTGYMWCLIFFCYALAFWYGSRLVLDEGEYTPGTLIQIFLCVIIAAMNIGNASSCLEIFSTGCSAASSIFQTIDRQPVMDCMSGDGYKLDRIKGEIEFHNVTFHYPSRPEVKILNNLSMVIKPGETTAFVGSSGAGKSTALQLIQRFYDPCEGMVTLDGHDIRSLNIRWLRDQIGIVEQEPVLFSTTIAENIRLGREEATMEDIVQAAKDANAYNFIMALPQQFDTLVGEGGGQMSGGQKQRVAIARALIRKPKILLLDMATSALDNESEAKVQGALNKIQHGHTIISVAHRLSTVRSADVIIGFEHGTAVERGTHEELLERKGVYFMLVTLQSQEDNTHKETGIKGKDTTEGDTPERTFSRGSYQDSLRASIRQRSKSQLSHLSHEPPLAIGDHKSSYEDRKDNDVLVEEVEPAPVRRILKYNISEWPYILVGALCAAINGAVTPIYSLLFSQILKTFSLVDKEQQRSEIYSMCLFFVILGCVSLFTQFLQGYNFAKSGELLTKRLRKFGFKAMLRQDIGWFDDLKNNPGVLTTRLATDASQVQGATGSQVGMMVNSFTNIFVAVLIAFLFNWKLSLVISVFFPFLALSGAVQTKMLTGFASQDKEILEKAGQITNEALSNIRTVAGIGVEGRFIKAFEVELEKSYKTAIRKANVYGLCYAFSQGISFLANSAAYRYGGYLIVYEDLNFSYVFRVVSSIAMSATAVGRTFSYTPSYAKAKISAARFFQLLDRKPPIDVYSGAGEKWDNFQGKIDFIDCKFTYPSRPDIQVLNGLSVSVDPGQTLAFVGSSGCGKSTSIQLLERFYDPDQGTVMIDGHDSKKVNVQFLRSNIGIVSQEPVLFDCSIMDNIKYGDNTKEISVERAIAAAKQAQLHDFVMSLPEKYETNVGIQGSQLSRGEKQRIAIARAIVRDPKILLLDEATSALDTESEKTVQLALDKAREGRTCIVIAHRLSTIQNSDIIAVMSQGVVIEKGTHKKLMDQKGAYYKLVITGAPIS
Km ([2]; other: mouseBsep-Sf9 CTRL): 6.798 µM
